In assay [1] the target is human IgG (human). The assay is described as follows: depletion of IgG from 50 µL human serum with 1 mg nanoparticles, 60 min with stirring at room temperature.
Assay [2] addresses human IgG (human). Description: depletion of 10 mg/ml IgG solution, 1 mg particles per 50 µL, single half-hour incubation.

As for “protein G' (protein G devoid of the albumin recognition region), covalently bound to silica mesoporous nanoparticles (from UniProt P19909 314-497)”, in the assay with human IgG (human) [1], the IgG elimination capacity was over 90%. The substance also registered a percent of IgG removed with human IgG (human) [2] of over 90%.
